{"source": "the supplement of paper PMC10567573", "parents": {"B1": {"name": "KRT13 (parent)", "chain": "TPGIDLTRVLAEMREQYEAMAERN"}}, "data": [{"variants_of": "B1", "assay": "protein stability index of a GFP-peptide fusion (GPS, HEK-293T) (PSI 1-6); higher = more stable", "conditions": "c terminus: a fixed tail appended", "values": [{"variant": "TPGIDLTRVLAEMREYYEAMAERN", "note": "[Q16Y]", "protein stability index": 4.01}, {"variant": "TPGIDLTRVLAEMREWYEAMAERN", "note": "[Q16W]", "protein stability index": 3.73}, {"variant": "TPGIDLTRVLAEMRETYEAMAERN", "note": "[Q16T]", "protein stability index": 3.39}, {"variant": "TPGIDLTRVLAEMRESYEAMAERN", "note": "[Q16S]", "protein stability index": 3.17}, {"variant": "TPGIDLTRVLAEMREVYEAMAERN", "note": "[Q16V]", "protein stability index": 3.82}, {"variant": "TPGIDLTRVLAEMRERYEAMAERN", "note": "[Q16R]", "protein stability index": 4.84}, {"variant": "TPGIDLTRVLAEMREQYEAMIERN", "note": "[A21I]", "protein stability index": 4.27}, {"variant": "TPGIDLTRVLAEMREQYEAMDERN", "note": "[A21D]", "protein stability index": 4.91}, {"variant": "TPGIDLTRVLAEMREQYEAMYERN", "note": "[A21Y]", "protein stability index": 4.5}, {"variant": "TPGIDLTRVLAEMREQYEAMPERN", "note": "[A21P]", "protein stability index": 4.93}, {"variant": "TPGIDLTRVLAEMREQYEAMVERN", "note": "[A21V]", "protein stability index": 3.55}, {"variant": "TPGIDLTRVLAEMREQYEAMKERN", "note": "[A21K]", "protein stability index": 3.94}, {"variant": "TPGIDLTRVLAEMREQYEAMQERN", "note": "[A21Q]", "protein stability index": 4.54}, {"variant": "TPGIDLTRVLAEMREQYEAMHERN", "note": "[A21H]", "protein stability index": 4.07}, {"variant": "TPGIDLTRVLAEMREQYEAMFERN", "note": "[A21F]", "protein stability index": 3.98}, {"variant": "TPGIDLTRVLAEMREQYEAMMERN", "note": "[A21M]", "protein stability index": 4.09}, {"variant": "TPGIDLTRVLAEMREQYEAMLERN", "note": "[A21L]", "protein stability index": 4.39}, {"variant": "TPGIDLTRVLAEMREQYEAMRERN", "note": "[A21R]", "protein stability index": 4.18}, {"variant": "TPGIDLTRVLAEMREQYEAMSERN", "note": "[A21S]", "protein stability index": 4.65}, {"variant": "TPGIDLTRVLAEMREQYEAMGERN", "note": "[A21G]", "protein stability index": 2.79}, {"variant": "TPGIDLTRVLAEMREQYEAMCERN", "note": "[A21C]", "protein stability index": 4.29}, {"variant": "TPGIDLTRVLAEMREQYEPMAERN", "note": "[A19P]", "protein stability index": 4.08}, {"variant": "TPGIDLTRVLAEMREQYEWMAERN", "note": "[A19W]", "protein stability index": 3.4}, {"variant": "TPGIDLTRVLAEMREQYEKMAERN", "note": "[A19K]", "protein stability index": 3.53}, {"variant": "TPGIDLTRVLAEMREQYEMMAERN", "note": "[A19M]", "protein stability index": 3.54}, {"variant": "TPGIDLTRVLAEMREQYECMAERN", "note": "[A19C]", "protein stability index": 3.99}, {"variant": "TPGIDLTRVLAEMREQYEIMAERN", "note": "[A19I]", "protein stability index": 3.73}, {"variant": "TPGIDLTRVLAEMREQYESMAERN", "note": "[A19S]", "protein stability index": 4.53}, {"variant": "TPGIDLTRVLAEMREQYEGMAERN", "note": "[A19G]", "protein stability index": 4.22}, {"variant": "TPGIDLTRVLAEMREQYEHMAERN", "note": "[A19H]", "protein stability index": 3.71}, {"variant": "TPGIDLTRVLAEMREQYEQMAERN", "note": "[A19Q]", "protein stability index": 3.48}, {"variant": "TPGIDLTRVLAEMREQYERMAERN", "note": "[A19R]", "protein stability index": 3.57}, {"variant": "TPGIDLTRVLAEMREQYEDMAERN", "note": "[A19D]", "protein stability index": 4.08}, {"variant": "TPGIDLTRVLAEMREQYETMAERN", "note": "[A19T]", "protein stability index": 4.16}, {"variant": "TPGIDLTRVLAEMREQYEFMAERN", "note": "[A19F]", "protein stability index": 4.13}, {"variant": "TPGIDLTRVLAEMREQYENMAERN", "note": "[A19N]", "protein stability index": 4.28}, {"variant": "TPGIDLTRVLAEMREQYEYMAERN", "note": "[A19Y]", "protein stability index": 3.76}, {"variant": "TPGIDLTRVLAEMREQYELMAERN", "note": "[A19L]", "protein stability index": 2.92}, {"variant": "TPGIDLTRVLAEMREQYEVMAERN", "note": "[A19V]", "protein stability index": 3.23}, {"variant": "TPGIDLTRVLAEMREQVEAMAERN", "note": "[Y17V]", "protein stability index": 4.29}, {"variant": "TPGIDLTRVLAEMREQAEAMAERN", "note": "[Y17A]", "protein stability index": 5.29}, {"variant": "TPGIDLTRVLAEMREQTEAMAERN", "note": "[Y17T]", "protein stability index": 5.8}, {"variant": "TPGIDLTRVLAEMREQMEAMAERN", "note": "[Y17M]", "protein stability index": 4.3}, {"variant": "TPGIDLTRVLAEMREQHEAMAERN", "note": "[Y17H]", "protein stability index": 4.76}, {"variant": "TPGIDLTRVLAEMREQGEAMAERN", "note": "[Y17G]", "protein stability index": 6}, {"variant": "TPGIDLTRVLAEMREQREAMAERN", "note": "[Y17R]", "protein stability index": 4.75}, {"variant": "TPGIDLTRVLAEMREQNEAMAERN", "note": "[Y17N]", "protein stability index": 4.56}, {"variant": "TPGIDLTRVLAEMREQDEAMAERN", "note": "[Y17D]", "protein stability index": 5.4}, {"variant": "TPGIDLTRVLAEMREQCEAMAERN", "note": "[Y17C]", "protein stability index": 4.23}, {"variant": "TPGIDLTRVLAEMREQKEAMAERN", "note": "[Y17K]", "protein stability index": 5.5}, {"variant": "TPGIDLTRVLAEMREQEEAMAERN", "note": "[Y17E]", "protein stability index": 4.6}, {"variant": "TPGIDLTRVLAEMREQWEAMAERN", "note": "[Y17W]", "protein stability index": 5.02}, {"variant": "TPGIDLTRVLAEMREQYEATAERN", "note": "[M20T]", "protein stability index": 4.25}, {"variant": "TPGIDLTRVLAEMREQYEAWAERN", "note": "[M20W]", "protein stability index": 5.32}, {"variant": "TPGIDLTRVLAEMREQYEAHAERN", "note": "[M20H]", "protein stability index": 4.32}, {"variant": "TPGIDLTRVLAEMREQYEAIAERN", "note": "[M20I]", "protein stability index": 3.88}, {"variant": "TPGIDLTRVLAEMREQYEAQAERN", "note": "[M20Q]", "protein stability index": 4.13}, {"variant": "TPGIDLTRVLAEMREQYEADAERN", "note": "[M20D]", "protein stability index": 4.79}, {"variant": "TPGIDLTRVLAEMREQYEACAERN", "note": "[M20C]", "protein stability index": 4.1}, {"variant": "TPGIDLTRVLAEMREQYEAFAERN", "note": "[M20F]", "protein stability index": 3.42}, {"variant": "TPGIDLTRVLAEMREQYEAYAERN", "note": "[M20Y]", "protein stability index": 4.62}, {"variant": "TPGIDLTRVLAEMREQYEANAERN", "note": "[M20N]", "protein stability index": 3.18}, {"variant": "TPGIDLTRVLAEMREQYEAEAERN", "note": "[M20E]", "protein stability index": 4.49}, {"variant": "TPGIDLTRVLAEMREQYEAVAERN", "note": "[M20V]", "protein stability index": 3.09}, {"variant": "TPGIDLTRVLAEMREQYEAAAERN", "note": "[M20A]", "protein stability index": 4.74}, {"variant": "TPGIDLTRVLAEMREQYEAKAERN", "note": "[M20K]", "protein stability index": 4.81}, {"variant": "TPGIDLTRVLAEMREQYEAPAERN", "note": "[M20P]", "protein stability index": 4.81}, {"variant": "TPGIDLTRVLAEMREQYEALAERN", "note": "[M20L]", "protein stability index": 3.74}, {"variant": "TPGIDLTRVLAEMREQYEARAERN", "note": "[M20R]", "protein stability index": 4.68}, {"variant": "TPGIDLTRVLAEMREQYEAGAERN", "note": "[M20G]", "protein stability index": 4.22}, {"variant": "TPGIDLTRVLAEMREQYAAMAERN", "note": "[E18A]", "protein stability index": 4.23}, {"variant": "TPGIDLTRVLAEMREQYRAMAERN", "note": "[E18R]", "protein stability index": 3.47}, {"variant": "TPGIDLTRVLAEMREQYFAMAERN", "note": "[E18F]", "protein stability index": 2.84}, {"variant": "TPGIDLTRVLAEMREQYKAMAERN", "note": "[E18K]", "protein stability index": 3.84}, {"variant": "TPGIDLTRVLAEMREQYWAMAERN", "note": "[E18W]", "protein stability index": 3.62}, {"variant": "TPGIDLTRVLAEMREQYQAMAERN", "note": "[E18Q]", "protein stability index": 3.13}, {"variant": "TPGIDLTRVLAEMREQYTAMAERN", "note": "[E18T]", "protein stability index": 3.06}, {"variant": "TPGIDLTRVLAEMREQYHAMAERN", "note": "[E18H]", "protein stability index": 3.44}, {"variant": "TPGIDLTRVLAEMREQYMAMAERN", "note": "[E18M]", "protein stability index": 3.72}, {"variant": "TPGIDLTRVLAEMREQYCAMAERN", "note": "[E18C]", "protein stability index": 2.93}, {"variant": "TPGIDLTRVLAEMREQYNAMAERN", "note": "[E18N]", "protein stability index": 3.5}, {"variant": "TPGIDLTRVLAEMREQYIAMAERN", "note": "[E18I]", "protein stability index": 3.98}, {"variant": "TPGIDLTRVLAEMREQYSAMAERN", "note": "[E18S]", "protein stability index": 3.96}, {"variant": "TPGIDLTRVLAEMREQYVAMAERN", "note": "[E18V]", "protein stability index": 4.39}, {"variant": "TPGIDLTRVLAEMREQYYAMAERN", "note": "[E18Y]", "protein stability index": 3.87}, {"variant": "TPGIDLTRVLAEMREQYPAMAERN", "note": "[E18P]", "protein stability index": 2.72}, {"variant": "TPGIDLTRVLAEMREQYGAMAERN", "note": "[E18G]", "protein stability index": 3.88}, {"variant": "TPGIDLTRVLAEMREQYDAMAERN", "note": "[E18D]", "protein stability index": 4.27}, {"variant": "TPGIDLTRVLAEMREQYEAMAGRN", "note": "[E22G]", "protein stability index": 4.02}, {"variant": "TPGIDLTRVLAEMREQYEAMAFRN", "note": "[E22F]", "protein stability index": 2.98}, {"variant": "TPGIDLTRVLAEMREQYEAMAARN", "note": "[E22A]", "protein stability index": 4.08}, {"variant": "TPGIDLTRVLAEMREQYEAMADRN", "note": "[E22D]", "protein stability index": 4.66}, {"variant": "TPGIDLTRVLAEMREQYEAMAHRN", "note": "[E22H]", "protein stability index": 3.73}, {"variant": "TPGIDLTRVLAEMREQYEAMACRN", "note": "[E22C]", "protein stability index": 3.7}]}]}
